Consider 2 compounds from article PMC11697048, “Ce6-GFFY is a novel photosensitizer for colorectal cancer therapy” (Genes & Diseases, 2024).

Data set [1] relates to HCT116 cells. As to the kind of experiment: ROS detection with DCFH-DA. The format is cell-based, human. Conditions: HCT116, 5 μM, 1 h, 660 nm laser 1 min 0.02 W/cm^2, confocal laser scanning microscopy. Here is the method:
(§1) For cell endocytosis detection, CT26 and HCT116 cells were treated with Ce6 molecules (5 μM) or Ce6-GFFY (5 μM) at 37 °C for 1 h. For ROS detection, cells were treated with Ce6 molecules (5 μM), GFFY peptide (5 μM), or Ce6-GFFY (5 μM) at 37 °C for 1 h and then treated with or without laser irradiation for 1 min (660 nm, 0.02 W/cm^2). Afterward, the cells were collected and stained with DCFH-DA (1:5000) at 37 °C for 20 min. For cell death analysis, cells were treated with Ce6 molecules, GFFY peptide, or Ce6-GFFY (CT26, 10 μM; HCT116, 5 μM) at 37 °C for 1 h and then treated with or without laser irradiation for 1 min (660 nm, 0.02 W/cm^2). After incubation at 37 °C for 24 h, the cells were collected and stained with propidium iodide (1:100) and annexin V-FITC (1:200). For examination of CRT expression, cells were treated with Ce6 molecules, GFFY peptide, or Ce6-GFFY (CT26, 10 μM; HCT116, 5 μM) at 37 °C for 1 h and then treated with or without laser irradiation for 1 min (660 nm, 0.02 W/cm^2). After incubation at 37 °C for 8 h, the cells were collected and blocked with 5% bull serum albumin for 10 min and then incubated with a primary anti-calreticulin antibody (#ab92516, Abcam), followed by the incubation of an Alexa Fluor 488-conjugated secondary antibody (#406416, BioLegend). […]

Data set [2] concerns CT26 cells. As to the kind of experiment: ROS detection with DCFH-DA. Format: cell-based, mouse. Conditions: CT26, 5 μM, 1 h, 660 nm laser 1 min 0.02 W/cm^2, confocal laser scanning microscopy. As to the method: as §1
Data set [3] can be described thus: In vivo imaging, kinetics of Ce6 fluorescence in mice. More on the design: species or system mouse. Here is the method: (§2) For in vivo imaging, Ce6-GFFY (5 mg/kg) and Ce6 molecules (2.5 mg/kg) were injected into mice burdened with or without xenograft tumors through the tail vein (100 μL/mouse), and the fluorescence intensity of mice or main tissues such as brain, heart, liver, spleen, lung, kidney, intestine, and stomach was detected and analyzed with an IVIS spectrum imaging system (PerkinElmer, MA, USA). All animal experiments were approved by The Institutional Animal Care and Use Committee at Sun Yat-sen Cancer Center.

Data set [4] relates to CT26 cells. As to the kind of experiment: CCK-8 assay. The format is cell-based, mouse. To be noted: drug 1 h, 660 nm laser 1 min at 0.02 W/cm^2, then 24 h at 37 °C, read-out: IC50 (proliferation). Here is the method:
(§3) Cell viability was measured using a CCK-8 cell counting kit (Beyotime Biotechnology, Shanghai, China). 7000 cells were seeded in 96-well plates and treated with drugs at various concentrations for 1 h and then treated with or without laser irradiation for 1 min (660 nm, 0.02 W/cm^2), followed by incubation at 37 °C for 24 h. After the addition of the CCK-8 reagent, the cells were continually incubated at 37 °C for 3 h before being detected by a microplate reader (TECAN, Victoria, Austria).
A general note: Tetrazolium assays rely on reduction of a dye to a coloured formazan, in cell work by metabolically active cells.

The subject of data set [5] is CT26 cells. Nature of the data set: Cell endocytosis (uptake) detection by Ce6 fluorescence. Format: cell-based, mouse. To be noted: CT26, 5 μM, 37 °C, 1 h. As to the method: as §1
The subject of data set [6] is HCT116 cells. Described as above. Format: cell-based, human. To be noted: HCT116, 5 μM, 37 °C, 1 h. Here is the method:
as §1

The next data set relates to CT26-derived tumors. As to the kind of experiment: In vivo imaging, tumor targeting in mice bearing CT26-derived tumors. More on the design: species or system mouse. Conditions: tail vein, 5 mg/kg, n = 3. Here is the method: as §2
The nature of data set [7]: Toxicity evaluation in mice (blood routine, liver and kidney function, H&E pathology). Format: in vivo, mouse. To be noted: 5 mg/kg i.v. plus laser irradiation. An excerpt: Four-to-six-week-old BALB/c mice and BALB/c nude mice were purchased from Guangdong Medical Laboratory Animal Center (Guangzhou, China). All mice were maintained under standard conditions and treated according to institutional guidelines for animal care. For primary tumor therapy, 2 × 10^5 CT26 cells were suspended in a 1:1 mixture of PBS and matrigel and subcutaneously injected into the flanks of the mice. When the volume of tumors reached 70 mm^3, the mice were randomized into treatment and control groups. The treatment groups received tail intravenous injections of GFFY (2.5 mg/kg), Ce6 (2.5 mg/kg), or Ce6-GFFY (5 mg/kg), and the control group received PBS treatment, both groups were treated with once 660 nm laser irradiation for 8 min (1 min on, 1 min off; 4 cycles) on the tumor region at a power of 0.2 W/cm^2. Tumor volume and mouse body weight were recorded every three days, and tumor tissues were collected and weighed at the end of treatment. Main organs such as the heart, liver, spleen, lung, and kidney were collected for pathological analysis and the blood was collected for blood routine examination.

For data set [8], the system named is HCT116 cells. As to the kind of experiment: CCK-8 assay. Conditions: drug 1 h, 660 nm laser 1 min at 0.02 W/cm^2, then 24 h at 37 °C, read-out: IC50 (proliferation). The format is cell-based, human. As to the method:
as §3

Where [9] appears, read: confocal laser scanning microscopy, versus Ce6 molecules.
[10] abbreviates: flow cytometry, Ce6 fluorescence.

Bounds are passed on as bounds.

In the case of `C=Cc1c(C)c2cc3nc(c(CC(=O)O)c4[nH]c(cc5nc(cc1[nH]2)C(C)=C5CC)c(C)c4C(=O)O)[C@@H](CCC(=O)O)[C@@H]3C` [Ce6, chlorin e6], the “ROS production upon 660 nm laser irradiation” value in the data set with HCT116 cells [1] and in the data set on CT26 cells [2] was “minimal” each time. For the same compound, in [3] (mice, tail vein injection, 2.5 mg/kg, living imaging of Ce6 luminescence, n = 5), the “time after injection by which almost cleared” value is listed as at most 12 h. In addition, the half-life in mice in data set [3] (mice, tail vein injection, Ce6-GFFY 5 mg/kg, Ce6 2.5 mg/kg, from Ce6 luminescence changes, IVIS imaging, n = 5) is listed as 3 h.
`C=Cc1c(C)c2cc3nc(c(CC(=O)NCC(=O)N[C@@H](Cc4ccccc4)C(=O)N[C@@H](Cc4ccccc4)C(=O)N[C@@H](Cc4ccc(O)cc4)C(=O)O)c4[nH]c(cc5nc(cc1[nH]2)C(C)=C5CC)c(C)c4C(=O)O)[C@@H](CCC(=O)O)[C@@H]3C` [Ce6-GFFY]: the IC50 in the data set on CT26 cells [4] was found to be 6.27 µM; in the data set on HCT116 cells [8], 5.3 µM. Further, the “cellular Ce6 fluorescence” value in the data set on CT26 cells [5] (setting [9]) and with HCT116 cells [6] (setting [9]) was “noticeable aggregation of Ce6 fluorescence” each time. Also, the “cellular uptake (Ce6 positive cells)” value in the data set on CT26 cells [5] (setting [10]) and in the data set with HCT116 cells [6] (setting [10]) was “much higher than Ce6 molecules” each time. Moreover, in the data set on CT26-derived tumors (living imaging), the “accumulation in tumor regions after injection” value is on record as “accumulated rapidly in the tumor regions”. In addition, the “distribution in tumor and normal tissues after 24 h” value in the data set with CT26-derived tumors (organs and tumors imaged at 24 h) is recorded as “stable aggregation in tumor tissues”. Besides, in data set [7] (end of treatment, n = 5), the “hepatic and renal function (AST, ALT, BUN)” value is “did not exert an impact on the hepatic and renal function”. Also, the “murine blood routine analysis (inflammatory responses)” value in data set [7] (end of treatment, n = 5) is reported as “did not elicit any significant inflammatory responses”. The “histopathological analysis of heart, liver, spleen, lung, and kidney (H&E)” value in data set [7] (n = 4) is “no apparent toxicity”. In data set [3] (mouse, in vivo, 5 mg/kg), the “retention time in the mice” value was “over 48 h”.
